In patent publication US20140030218A1, “Treatment And Screening” (IMPERIAL INNOVATIONS LIMITED, published 2014):

B7: human IRF5 tagged with one-strep tag (N-terminus) and HA tag (C-terminus) (other)
chain: MNQSIPVAPTPPRRVRLKPWLVAQVNSCQYPGLQWVNGEKKLFCIPWRHATRHGPSQDGDNTIFKAWAKETGKYTEGVDEADPAKWKANLRCALNKSRDFRLIYDGPRDMPPQPYKIYEVCSNGPAPTDSQPPEDYSFGAGEEEEEEEELQRMLPSLSLTEDVKWPPTLQPPTLQPPVVLGPPAPDPSPLAPPPGNPAGFRELLSEVLEPGPLPASLPPAGEQLLPDLLISPHMLPLTDLEIKFQYRGRPPRALTISNPHGCRLFYSQLEATQEQVELFGPISLEQVRFPSPEDIPSDKQRFYTNQLLDVLDRGLILQLQGQDLYAIRLCQCKVFWSGPCASAHDSCPNPIQREVKTKLFSLEHFLNELILFQKGQTNTPPPFEIFFCFGEEWPDRKPREKKLITVQVVPVAARLLLEMFSGELSWSADSIRLQISNPDLKDRMVEQFKELHHIWQSQQRLQPVAQAPPGAGLGVGQGPWPMHPAGMQ
notes: Expressed in HEK-293-TLR4-CD14/Md2 cells and purified on Strep-Tactin after formaldehyde cross-linking; also called onestrep-IRF5-HA; IRF5 with an N-terminal one-strep tag and a C-terminal HA tag; not shown: N-terminal one-strep tag; C-terminal HA tag

How the values were obtained:
IRF5 DBD (aa 1-131) [1] = target: T1, IRF5 DBD (aa 1-131) (Homo sapiens, UniProt Q13568 SEQ:1-131); assay: EMSA; non-consensus ISRE; details: tags: expressed from pET21d in bacteria; label: 32P (dCTP fill-in); 5' agct overhangs
Method: (§1) (A) Recombinant purified IRF5-DBD was used in an EMSA with radioactive probe corresponding to the selected ISRE and κB sites. PRDI-III (IFN-˜ promoter) was used as a positive control.
(§2) Binding reactions with 50 ng of bacterially expressed and purified IRF5 DBD and EMSA gel separation were performed as previously described⁵.

IRF5 DBD (aa 1-131) [2] = target: T1, IRF5 DBD (aa 1-131); assay: EMSA; 50 ng IRF5 DBD; details: tags: expressed from pET21d in bacteria; label: 32P (dCTP fill-in); 5' agct overhangs
Method: as §1, §2

IRF5 DBD (aa 1-131) [3] = target: T1, IRF5 DBD (aa 1-131); assay: EMSA; 50 ng IRF5 DBD; ISRE 1/2 said to interact in vitro; details: tags: expressed from pET21d in bacteria; label: 32P (dCTP fill-in); 5' agct overhangs
Method: as §1, §2

[4] = target: B7; assay: Strep-Tactin pull-down of one-strep-IRF5-HA from formaldehyde-cross-linked HEK-293 cells, immunoblot
Method: (§3) HEK-293-TLR4-CD14/Md2 cells were transfected with onestrep-IRF5-HA construct or corresponding empty vector. 24 hrs post transfection cells were fixed with 1% formaldehyde for 10 minutes at room temperature prior to high salt lysis and affinity purification on Strep-Tactin MacroPrep sepharose (IBA). The eluates were de-crosslinked by incubating at 65° C. overnight prior to separation by SDS-PAGE. Exogenous IRF5 and endogenous RelA were detected by immunoblotting with anti-HA-HRP (12013819001, Roche) and anti-RelA (sc-372, Santa-Cruz, US). Alternatively, cells were transfected with RelA-FLAG or BAP-FLAG control protein. 24 hrs post transfection cells were lysed and affinity purified with anti-FLAG M2 sepharose beads (Sigma, UK). Exogenous RelA and endogenous IRF5 were detected by immunoblotting with anti-FLAG-HRP (A8592, Sigma, UK) and anti-IRF5 (Abcam, UK). Interaction of endogenous RelA and IRF5 was detected by overnight incubation of the cell lysates with goat anti-IRF5 antibody (ab2932, Abcam, UK) or no antibody control prior to precipitation with protein G beads. IRF5 was detected by immunoblotting with mouse anti-IRF5 antibody (sc-56714, Santa-Cruz, USA) while RelA—by immunoblotting with anti-RelA. Triton X-100 extracted nuclei and DNase I digestion of chromatin was performed as described previously¹⁷.
(§4) IRF5 with an N-terminal one-strep tag and a C-terminal HA tag was expressed in HEK-293 cells. […] To determine whether this interaction was specific, we immunoblotted for other NE-κB family members: Rel-B, c-Rel, p50 and p52, or a control protein tubulin. […] Furthermore we conducted a complementary experiment, in which human RelA containing C-terminal FLAG tag was expressed in HEK-293 cells and immunoprecipitated in the absence of a cross-linking agents on anti-FLAG sepharose. Specific interactions between ectopically expressed RelA and endogenous IRF5 were observed. No interaction was detected between a control FLAG-tagged bacterial alkaline phosphatase (BAP) and IRF5 (FIG. 24B, compare lanes 1 and 2).

[5] = target: T2, human RelA containing C-terminal FLAG tag (human, UniProt Q04206 1-551); assay: One-Strep affinity purification from co-transfected HEK293-TLR4-CD14/Md2 cells, Western blot
T2 construct: Expressed in HEK-293 cells; also called RelA-FLAG; Flag-tagged RelA; not shown: C-terminal FLAG tag
T2 sequence (Q04206 other isoform, or with tags, fused parts or gaps): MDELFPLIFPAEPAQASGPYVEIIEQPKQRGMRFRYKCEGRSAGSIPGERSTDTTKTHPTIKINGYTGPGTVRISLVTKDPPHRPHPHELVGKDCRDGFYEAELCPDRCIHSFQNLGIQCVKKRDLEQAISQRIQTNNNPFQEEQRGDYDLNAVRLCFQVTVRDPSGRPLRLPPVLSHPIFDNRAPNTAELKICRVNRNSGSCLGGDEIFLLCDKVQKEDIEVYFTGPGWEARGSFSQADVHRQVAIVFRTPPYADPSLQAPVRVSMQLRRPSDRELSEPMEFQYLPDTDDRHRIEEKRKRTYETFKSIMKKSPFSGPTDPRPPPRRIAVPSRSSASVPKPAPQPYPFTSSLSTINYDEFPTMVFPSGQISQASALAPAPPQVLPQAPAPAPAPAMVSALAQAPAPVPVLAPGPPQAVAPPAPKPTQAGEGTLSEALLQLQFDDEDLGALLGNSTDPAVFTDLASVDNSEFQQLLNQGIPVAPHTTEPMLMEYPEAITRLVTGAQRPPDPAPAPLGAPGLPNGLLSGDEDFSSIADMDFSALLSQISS

Rel-B = target: T3, Rel-B (UniProt Q01201 1-579); assay: Strep-Tactin pull-down of one-strep-IRF5-HA from formaldehyde-cross-linked HEK-293 cells, immunoblot
T3 construct: Endogenous protein in HEK-293 lysate, probed by immunoblot
T3 sequence (looked up): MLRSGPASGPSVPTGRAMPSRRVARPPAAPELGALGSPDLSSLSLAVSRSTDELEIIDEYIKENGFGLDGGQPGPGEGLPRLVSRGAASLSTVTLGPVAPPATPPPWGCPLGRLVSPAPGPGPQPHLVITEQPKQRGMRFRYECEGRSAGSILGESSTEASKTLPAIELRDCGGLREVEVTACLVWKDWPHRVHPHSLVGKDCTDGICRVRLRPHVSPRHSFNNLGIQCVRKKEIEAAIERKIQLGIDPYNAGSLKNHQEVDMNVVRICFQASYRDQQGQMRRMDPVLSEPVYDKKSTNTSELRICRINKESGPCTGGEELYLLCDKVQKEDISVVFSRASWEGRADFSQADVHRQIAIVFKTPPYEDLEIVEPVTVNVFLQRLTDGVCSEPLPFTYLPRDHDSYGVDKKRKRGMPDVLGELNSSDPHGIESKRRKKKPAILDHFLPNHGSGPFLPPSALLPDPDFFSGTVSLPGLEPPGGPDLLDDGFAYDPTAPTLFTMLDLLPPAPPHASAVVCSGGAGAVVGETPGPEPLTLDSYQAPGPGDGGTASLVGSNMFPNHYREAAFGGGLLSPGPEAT
Method: as §3, §4

c-Rel = target: T4, c-Rel (UniProt Q04864 2-619, limits assumed); assay: as above
T4 construct: Endogenous protein in HEK-293 lysate, probed by immunoblot
T4 sequence (looked up): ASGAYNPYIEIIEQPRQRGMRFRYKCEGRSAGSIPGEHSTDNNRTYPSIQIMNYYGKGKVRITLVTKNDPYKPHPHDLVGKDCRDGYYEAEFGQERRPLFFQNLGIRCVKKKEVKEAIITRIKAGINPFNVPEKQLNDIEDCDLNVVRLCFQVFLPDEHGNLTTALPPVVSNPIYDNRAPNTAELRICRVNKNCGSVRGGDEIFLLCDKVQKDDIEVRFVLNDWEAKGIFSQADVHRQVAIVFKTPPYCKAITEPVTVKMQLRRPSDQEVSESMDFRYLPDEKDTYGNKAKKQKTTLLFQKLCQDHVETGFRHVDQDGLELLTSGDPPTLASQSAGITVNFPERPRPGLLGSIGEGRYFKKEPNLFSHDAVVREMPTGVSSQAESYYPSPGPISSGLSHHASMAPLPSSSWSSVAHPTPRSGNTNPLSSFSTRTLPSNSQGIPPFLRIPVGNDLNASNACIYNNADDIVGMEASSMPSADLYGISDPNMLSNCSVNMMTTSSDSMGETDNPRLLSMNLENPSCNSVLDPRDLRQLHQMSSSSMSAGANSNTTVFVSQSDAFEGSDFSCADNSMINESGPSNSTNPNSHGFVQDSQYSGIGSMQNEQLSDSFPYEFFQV
Method: as §3, §4

B1: TNF 'ISRE'17 (dsDNA)
DNA 1: AGCTACATAAACAAAGCCCAACAGAATATTCC
DNA 2: AGCTGGAATATTCTGTTGGGCTTTGTTTATGT
Q: Does B1 bind (IRF5 DBD (aa 1-131) [1])?
A: no binding

B2: TNF 'ISRE'16 (dsDNA)
DNA 1: AGCTTTTGCTTAGAAAAGAAACATGGTCTC
DNA 2: AGCTGAGACCATGTTTCTTTTCTAAGCAAA
Q: Does B2 bind (IRF5 DBD (aa 1-131) [1])?
A: no binding

B3: TNF kB4a (dsDNA)
DNA 1: AGCTAACTCTGGGAATTCCAATCCTT
DNA 2: AGCTAAGGATTGGAATTCCCAGAGTT
Q: Does B3 bind (IRF5 DBD (aa 1-131) [2])?
A: no binding

B4: TNF ISRE1 (dsDNA)
DNA 1: AGCTGAAGCCAAGACTGAAACCAGCATTA
DNA 2: AGCTTAATGCTGGTTTCAGTCTTGGCTTC
Q: Does B4 bind (IRF5 DBD (aa 1-131) [3])?
A: binds

B5: p50 (other, UniProt P19838 1-433, looked up)
chain: MAEDDPYLGRPEQMFHLDPSLTHTIFNPEVFQPQMALPTDGPYLQILEQPKQRGFRFRYVCEGPSHGGLPGASSEKNKKSYPQVKICNYVGPAKVIVQLVTNGKNIHLHAHSLVGKHCEDGICTVTAGPKDMVVGFANLGILHVTKKKVFETLEARMTEACIRGYNPGLLVHPDLAYLQAEGGGDRQLGDREKELIRQAALQQTKEMDLSVVRLMFTAFLPDSTGSFTRRLEPVVSDAIYDSKAPNASNLKIVRMDRTAGCVTGGEEIYLLCDKVQKDDIQIRFYEEEENGGVWEGFGDFSPTDVHRQFAIVFKTPKYKDINITKPASVFVQLRRKSDLETSEPKPFLYYPEIKDKEEVQRKRQKLMPNFSDSFGGGSGAGAGGGGMFGSGGGGGGTGSTGPGYSFPHYGFPTYGGITFHPGTTKSNAGMKHG
notes: Endogenous protein in HEK-293 lysate, probed by immunoblot; also called NF-kB p50
Q: Does B5 bind [4]?
A: no binding

B6: One-Strep-IRF5 fusion protein (other)
chain: MNQSIPVAPTPPRRVRLKPWLVAQVNSCQYPGLQWVNGEKKLFCIPWRHATRHGPSQDGDNTIFKAWAKETGKYTEGVDEADPAKWKANLRCALNKSRDFRLIYDGPRDMPPQPYKIYEVCSNGPAPTDSQPPEDYSFGAGEEEEEEEELQRMLPSLSLTEDVKWPPTLQPPTLQPPVVLGPPAPDPSPLAPPPGNPAGFRELLSEVLEPGPLPASLPPAGEQLLPDLLISPHMLPLTDLEIKFQYRGRPPRALTISNPHGCRLFYSQLEATQEQVELFGPISLEQVRFPSPEDIPSDKQRFYTNQLLDVLDRGLILQLQGQDLYAIRLCQCKVFWSGPCASAHDSCPNPIQREVKTKLFSLEHFLNELILFQKGQTNTPPPFEIFFCFGEEWPDRKPREKKLITVQVVPVAARLLLEMFSGELSWSADSIRLQISNPDLKDRMVEQFKELHHIWQSQQRLQPVAQAPPGAGLGVGQGPWPMHPAGMQ
notes: also called full-length IRF5 (One-Strep bait); not shown: One-Strep tag
Q: Does B6 bind [5]?
A: binds

Q: Does B7 bind (Rel-B)?
A: no binding

Q: Does B7 bind (c-Rel)?
A: no binding

B8: p52 (other, UniProt Q00653 1-454, looked up)
chain: MESCYNPGLDGIIEYDDFKLNSSIVEPKEPAPETADGPYLVIVEQPKQRGFRFRYGCEGPSHGGLPGASSEKGRKTYPTVKICNYEGPAKIEVDLVTHSDPPRAHAHSLVGKQCSELGICAVSVGPKDMTAQFNNLGVLHVTKKNMMGTMIQKLQRQRLRSRPQGLTEAEQRELEQEAKELKKVMDLSIVRLRFSAFLRASDGSFSLPLKPVISQPIHDSKSPGASNLKISRMDKTAGSVRGGDEVYLLCDKVQKDDIEVRFYEDDENGWQAFGDFSPTDVHKQYAIVFRTPPYHKMKIERPVTVFLQLKRKRGGDVSDSKQFTYYPLVEDKEEVQRKRRKALPTFSQPFGGGSHMGGGSGGAAGGYGGAGGGGSLGFFPSSLAYSPYQSGAGPMGCYPGGGGGAQMAATVPSRDSGEEAAEPSAPSRTPQCEPQAPEMLQRAREYNARLFGLA
notes: Endogenous protein in HEK-293 lysate, probed by immunoblot; also called NF-kB p52
Q: Does B8 bind [4]?
A: no binding

B9: TNF kB4b (dsDNA)
DNA 1: AGCTCTTGCTGGGAAAATCCTGCAG
DNA 2: AGCTGCTGCAGGATTTTCCCAGCAAG
Q: Does B9 bind (IRF5 DBD (aa 1-131) [2])?
A: no binding
